The term Kd denotes the concentration at which binding is half-saturated. A lower Kd goes with higher affinity. For orientation: koff means a measure of how fast the partners let go of each other. Read a low koff as a long-lived complex. The term kon denotes the second-order rate constant of association. A higher kon goes with faster complex formation.

Like-named read-outs stand apart in the source and are kept apart here.

The target of assay [1] is T1, CBD-toxin A-Fc (Clostridium difficile, UniProt P16154 1848-2710).
T1 construct: also called CBD-A; C-term Toxin A
In words: SPR Biacore, CBD-A-Fc captured, 500 nM mAb flowed. For orientation: Surface plasmon resonance follows binding to a sensor surface in real time, without labels.

Assay [2] deals with T2, CBD-toxin B-Fc (Clostridium difficile, UniProt P18177 1851-2366).
T2 construct: also called CBD-B; C-term Toxin B
In words: SPR Biacore, CBD-B-Fc captured, 500 nM mAb flowed.

In assay [3] the target is T3, Clostridium difficile toxin A, soluble full-length (TechLab) (Clostridium difficile, UniProt P16154 1-2710). In words: cell-based or functional assay.
The target in assay [4] is T1, CBD-toxin A-Fc. In words: SPR Biacore, mAb captured, 100 nM CBD-A-Fc flowed.
Assay [5] addresses T3, Clostridium difficile toxin A, soluble …. The experiment in a line: cell-based or functional assay. This is another data set of the same source.
The target is the same in assay [6]. The experiment in a line: SPR Biacore T200, 37C, mAb capture.
Assay [7] addresses T4, C-term receptor Binding Domain (CBD) of toxin A (Clostridium difficile, UniProt P16154 1848-2710).
T4 construct: also called CBD-A; recombinant CBD of toxin A
In words: SEC (Superose 6) of CBD and mAb mixture.

Assay [8] deals with T5, Clostridium difficile toxin B, soluble full-length (TechLab) (Clostridium difficile, UniProt P18177 2-2366).
T5 construct: also called tcdB
In words: SPR Biacore T200, 37C, mAb capture.

For assay [9], the target named is T3, Clostridium difficile toxin A, soluble …. In words: SPR Biacore T200, 37C, mAb capture. The source holds these as a separate data set.
Assay [10] concerns the target T2, CBD-toxin B-Fc. In words: SPR Biacore, mAb capture and CBD-Fc capture formats.
The target in assay [11] is T1, CBD-toxin A-Fc. The description is as above.

B1: H1H3330P (antibody, V domains shown)
VH: QVQLVESGGGVVQPGGSLRLSCAASGFTFSSYAMHWVRQAPGKGLEWVAIIWFDGSNEDYADSVKGRFTISRDNSKNMVYLQINSLRAEDTAVYYCARSANWNYEGGPLFDYWGQGTLVTVSS
VL: DIQMTQSPSSLSASVGDRVTITCRASQTISTFLNWYQQKPGKGPELLIYTASSLQSGVPSRFSGSGSGTDFALTISSLQPEDFATYYCQQNYNDPPTFGQGTRLEIKR
In the case of B1, in the assay with CBD-toxin A-Fc [1], the “binding (RU)” value worked out at 515 RU. Moreover, in the assay with CBD-toxin B-Fc [2], the “binding (RU)” value is -4 RU. Moreover, the “neutralization potency relative to control I” value in [3] is around 20 fold. Further, the “binding (RU)” value with CBD-toxin A-Fc [4] was found to be 441 RU. Also, in [5], the “IC50, Vero cell viability (neutralization), Trial 3, 32 pM Toxin A” value was 7 pM and the “IC50, Vero cell viability (neutralization), Trial 5, 25 pM Toxin A” value was determined as 7 pM. Besides, in assay [6], the affinity, expressed as Kd, was 547 pM; the “T½” value was determined as 1.42 h; the koff was 0.000137 s⁻¹; the kon came out at 250000 M⁻¹ s⁻¹.

B2: H2M3123N (antibody, V domains shown)
VH: DVQLVESGGDFVQPGGSLRLSCAASGVAFNDYEMNWIRQAPGKRLEWISHIDSSGTIIYYADSVKGRFTISRDSAKNSLFLQMDSLRAEDTAVYYCARERYSHYGYYYFGMDVWGQGTTVTVSS
VL: DIQMTQSPSTLSASVGDRVTITCRASQNIDNWLAWYQQKTGKAPNLLIYKASTLESGVPSRFSGSGSGTEFTLTIISLQPDDFATYYCQEYNTYSRTFGQGTKVEIK
notes: also called H2aM3123N; H1M3123N
Regarding B2, in assay [7], the binding result is “no binding (tested: CBD at ~500 nM, CBD:Mab 1:5 and 1:20)”. Besides, the “binding (RU)” value with CBD-toxin A-Fc [1] worked out at 23 RU. For the same molecule, the “binding (RU)” value with CBD-toxin A-Fc [4] came to 1 RU. In addition, in [5], the “IC50, Vero cell viability (neutralization), Trial 1, 32 pM Toxin A” value amounted to 65 pM and the “IC50, Vero cell viability (neutralization), Trial 2, 32 pM Toxin A” value was 24 pM. Besides, in assay [8], binding was put at a Kd of 1650 pM, the “T½” value came to 2.93 h, the koff was 6.54e-05 s⁻¹ and the kon amounted to 39700 M⁻¹ s⁻¹. In [9], the Kd was 481 pM, the “T½” value came out at 0.317 h, the koff was 0.000593 s⁻¹ and the kon stood at 1.23e+06 M⁻¹ s⁻¹. In addition, in the assay with CBD-toxin B-Fc [10], the binding result is on record as “no binding”. Besides, the binding result with CBD-toxin A-Fc [11] was “no binding”.

The values are drawn from patent publication US20160264650A1 (Regeneron, published 2016).
